Assay [1] concerns the target T1, Tiam1 PHCCEx domain (PH-CC-Ex region, residues 429-702) (mouse, UniProt Q60610 429-702).
T1 sequence (looked up): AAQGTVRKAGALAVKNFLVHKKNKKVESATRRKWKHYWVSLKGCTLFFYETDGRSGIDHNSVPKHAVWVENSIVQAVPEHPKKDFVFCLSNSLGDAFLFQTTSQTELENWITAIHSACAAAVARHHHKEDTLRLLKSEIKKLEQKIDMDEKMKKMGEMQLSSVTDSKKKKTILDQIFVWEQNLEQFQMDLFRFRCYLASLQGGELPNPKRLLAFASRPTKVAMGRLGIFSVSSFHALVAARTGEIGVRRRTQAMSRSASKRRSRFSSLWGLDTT
As to the kind of experiment: SPR. (SPR reads the build-up and loss of mass on a sensor chip optically.)

The target in assay [2] is T2, Tiam2 PHCCEx domain (PH-CC-Ex region, residues 500-757) (mouse, UniProt Q6ZPF3 500-757).
T2 sequence (looked up): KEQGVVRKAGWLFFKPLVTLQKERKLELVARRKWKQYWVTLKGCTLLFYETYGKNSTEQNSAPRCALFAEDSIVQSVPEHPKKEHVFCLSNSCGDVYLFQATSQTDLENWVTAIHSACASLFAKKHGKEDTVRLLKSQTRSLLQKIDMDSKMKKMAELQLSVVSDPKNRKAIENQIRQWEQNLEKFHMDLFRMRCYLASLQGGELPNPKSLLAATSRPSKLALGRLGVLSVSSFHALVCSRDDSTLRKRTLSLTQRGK
As to the kind of experiment: SPR.

Assay [3] deals with T3, Tiam2 PHCCEx domain, alanine mutant Arg691 (mouse, UniProt Q6ZPF3 500-757, alanine mutant Arg691).
T3 sequence (looked up): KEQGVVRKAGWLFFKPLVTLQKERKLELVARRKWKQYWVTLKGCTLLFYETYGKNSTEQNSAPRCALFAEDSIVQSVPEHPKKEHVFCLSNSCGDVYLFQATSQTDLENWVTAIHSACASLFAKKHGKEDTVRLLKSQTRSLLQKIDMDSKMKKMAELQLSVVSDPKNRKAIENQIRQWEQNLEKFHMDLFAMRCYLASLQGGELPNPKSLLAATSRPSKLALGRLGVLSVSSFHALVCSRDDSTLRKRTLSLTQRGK
The assay can be described thus: SPR.

Assay [4] concerns the target T4, Tiam2 PHCCEx domain, alanine mutant Lys627 (mouse, UniProt Q6ZPF3 500-757, alanine mutant Lys627).
T4 sequence (looked up): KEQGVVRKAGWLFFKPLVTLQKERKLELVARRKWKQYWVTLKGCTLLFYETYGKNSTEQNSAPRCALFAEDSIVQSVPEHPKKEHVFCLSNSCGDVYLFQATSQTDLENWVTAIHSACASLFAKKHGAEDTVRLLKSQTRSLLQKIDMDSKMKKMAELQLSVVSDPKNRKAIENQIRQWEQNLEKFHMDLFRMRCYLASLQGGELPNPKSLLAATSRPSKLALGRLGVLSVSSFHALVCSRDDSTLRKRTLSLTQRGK
The assay can be described thus: SPR.

For assay [5], the target named is T5, Tiam2 PHCCEx domain, alanine mutant Arg693 (R693A) (mouse, UniProt Q6ZPF3 500-757, R693A).
T5 sequence (looked up): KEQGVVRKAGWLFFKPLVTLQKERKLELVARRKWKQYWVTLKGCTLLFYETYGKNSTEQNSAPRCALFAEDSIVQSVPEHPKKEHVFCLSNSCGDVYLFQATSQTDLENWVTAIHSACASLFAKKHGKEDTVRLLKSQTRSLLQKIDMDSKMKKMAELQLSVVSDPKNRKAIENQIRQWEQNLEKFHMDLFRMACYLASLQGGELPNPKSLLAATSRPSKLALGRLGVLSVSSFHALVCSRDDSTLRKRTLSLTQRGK
The assay can be described thus: SPR.

For assay [6], the target named is T6, Tiam2 PHCCEx domain, alanine mutant Lys653 (mouse, UniProt Q6ZPF3 500-757, alanine mutant Lys653).
T6 sequence (looked up): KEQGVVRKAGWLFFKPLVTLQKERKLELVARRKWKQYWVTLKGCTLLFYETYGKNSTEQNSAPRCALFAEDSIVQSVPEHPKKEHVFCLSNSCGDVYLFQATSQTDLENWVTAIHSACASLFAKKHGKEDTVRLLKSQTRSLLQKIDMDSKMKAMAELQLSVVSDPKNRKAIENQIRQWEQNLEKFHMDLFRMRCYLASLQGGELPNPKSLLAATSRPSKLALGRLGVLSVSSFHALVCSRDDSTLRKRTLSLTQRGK
As to the kind of experiment: SPR.

The target in assay [7] is T7, Tiam2 PHCCEx domain, alanine mutant Lys624 (mouse, UniProt Q6ZPF3 500-757, alanine mutant Lys624).
T7 sequence (looked up): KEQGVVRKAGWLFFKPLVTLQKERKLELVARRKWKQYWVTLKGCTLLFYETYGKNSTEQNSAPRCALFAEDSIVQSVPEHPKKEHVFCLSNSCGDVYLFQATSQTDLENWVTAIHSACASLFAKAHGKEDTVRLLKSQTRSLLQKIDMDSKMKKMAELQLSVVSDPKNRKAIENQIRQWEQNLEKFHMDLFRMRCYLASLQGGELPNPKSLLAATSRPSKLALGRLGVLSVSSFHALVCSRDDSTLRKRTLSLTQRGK
The assay can be described thus: SPR.

Assay [8] concerns the target T8, Tiam2 PHCCEx domain, alanine mutant Arg632 (mouse, UniProt Q6ZPF3 500-757, alanine mutant Arg632).
T8 sequence (looked up): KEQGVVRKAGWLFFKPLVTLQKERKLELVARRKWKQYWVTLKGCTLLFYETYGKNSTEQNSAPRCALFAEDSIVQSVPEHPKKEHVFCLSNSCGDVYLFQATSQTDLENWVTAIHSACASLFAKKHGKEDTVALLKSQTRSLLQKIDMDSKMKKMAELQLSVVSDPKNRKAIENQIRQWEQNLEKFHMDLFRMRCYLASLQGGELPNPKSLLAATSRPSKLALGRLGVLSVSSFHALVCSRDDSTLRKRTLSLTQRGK
The assay can be described thus: SPR.

Assay [9] has as its target T9, Tiam2 PHCCEx domain, alanine mutant Arg716 (R716A) (mouse, UniProt Q6ZPF3 500-757, R716A).
T9 sequence (looked up): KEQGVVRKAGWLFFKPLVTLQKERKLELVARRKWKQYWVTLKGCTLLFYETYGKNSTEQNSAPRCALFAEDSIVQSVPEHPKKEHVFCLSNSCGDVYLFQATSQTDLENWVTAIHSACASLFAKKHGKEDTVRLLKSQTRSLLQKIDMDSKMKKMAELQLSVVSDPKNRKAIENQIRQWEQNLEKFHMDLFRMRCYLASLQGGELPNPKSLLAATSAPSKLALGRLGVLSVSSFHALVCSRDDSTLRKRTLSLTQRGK
As to the kind of experiment: SPR.

The target in assay [10] is T10, Tiam2 PHCCEx domain, alanine mutant Lys650 (mouse, UniProt Q6ZPF3 500-757, alanine mutant Lys650).
T10 sequence (looked up): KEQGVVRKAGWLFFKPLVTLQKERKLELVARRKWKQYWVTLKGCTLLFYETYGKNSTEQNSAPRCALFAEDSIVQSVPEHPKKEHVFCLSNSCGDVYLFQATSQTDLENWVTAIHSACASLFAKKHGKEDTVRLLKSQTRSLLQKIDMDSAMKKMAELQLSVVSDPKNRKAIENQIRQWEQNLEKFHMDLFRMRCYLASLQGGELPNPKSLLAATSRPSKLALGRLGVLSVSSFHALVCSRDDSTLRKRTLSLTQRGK
As to the kind of experiment: SPR.

Assay [11] deals with GFP-tagged full-length Par3 (UniProt Q9Z340 1-1337). As to the kind of experiment: co-IP.
Chain of GFP-tagged full-length Par3 (Q9Z340 whole entry): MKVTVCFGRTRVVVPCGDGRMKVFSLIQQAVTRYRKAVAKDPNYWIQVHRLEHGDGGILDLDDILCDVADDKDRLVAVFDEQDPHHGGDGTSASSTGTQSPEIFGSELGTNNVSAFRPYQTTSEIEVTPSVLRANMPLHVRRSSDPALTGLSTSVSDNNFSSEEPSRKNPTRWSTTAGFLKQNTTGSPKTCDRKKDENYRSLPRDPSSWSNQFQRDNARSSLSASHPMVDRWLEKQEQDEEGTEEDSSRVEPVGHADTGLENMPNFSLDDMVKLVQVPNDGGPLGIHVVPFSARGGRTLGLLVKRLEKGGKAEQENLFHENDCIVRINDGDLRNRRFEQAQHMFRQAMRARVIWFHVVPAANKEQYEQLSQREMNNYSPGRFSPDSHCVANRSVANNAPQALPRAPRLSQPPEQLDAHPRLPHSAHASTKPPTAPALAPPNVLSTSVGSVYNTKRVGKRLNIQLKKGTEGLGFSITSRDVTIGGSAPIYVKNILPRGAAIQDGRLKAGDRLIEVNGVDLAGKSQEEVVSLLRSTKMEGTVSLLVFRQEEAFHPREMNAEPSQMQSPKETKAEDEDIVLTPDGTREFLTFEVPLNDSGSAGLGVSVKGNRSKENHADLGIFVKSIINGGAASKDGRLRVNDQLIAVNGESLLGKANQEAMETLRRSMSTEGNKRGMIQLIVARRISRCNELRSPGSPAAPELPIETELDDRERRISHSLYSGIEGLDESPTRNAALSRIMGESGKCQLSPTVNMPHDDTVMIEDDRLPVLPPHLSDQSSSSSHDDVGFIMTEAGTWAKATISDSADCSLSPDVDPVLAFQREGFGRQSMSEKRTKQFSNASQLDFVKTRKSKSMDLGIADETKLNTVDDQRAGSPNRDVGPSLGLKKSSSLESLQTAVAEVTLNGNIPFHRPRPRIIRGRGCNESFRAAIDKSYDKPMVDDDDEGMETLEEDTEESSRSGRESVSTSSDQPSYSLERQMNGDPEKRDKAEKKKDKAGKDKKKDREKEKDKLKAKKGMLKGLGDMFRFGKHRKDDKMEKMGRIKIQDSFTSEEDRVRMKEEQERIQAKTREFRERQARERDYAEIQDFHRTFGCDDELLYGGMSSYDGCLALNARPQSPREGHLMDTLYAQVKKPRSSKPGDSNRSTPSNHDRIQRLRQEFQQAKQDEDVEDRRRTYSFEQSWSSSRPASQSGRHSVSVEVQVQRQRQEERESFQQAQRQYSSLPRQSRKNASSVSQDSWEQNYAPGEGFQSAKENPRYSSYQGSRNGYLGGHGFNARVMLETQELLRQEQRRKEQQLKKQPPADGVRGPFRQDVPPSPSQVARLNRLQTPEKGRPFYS

Where no end group is shown, it is not given here. The star is where a group is joined. Biotin = O=C1N[C@H]2[C@H](CS[C@H]2CCCCC(=O)*)N1

B1: NMDAR loop I peptide (residues 591-610) (peptide)
peptide: not shown
modifications: biotin on the N-terminus
On to B1, for which the binding result in assay [1] is on record as “binds”.

B2: CD44 acidic peptide comprising 24 residues (327-350) (peptide, UniProt P15379-2 327-350, looked up)
peptide: Biotin-SQEMVHLVNKEPSETPDQCMTADE
What is called Kd is the constant that tells how readily two partners part at equilibrium. As to B2, the binding result in [1], in assay [3], in [4], in [5], in assay [6] and in [7] was “binds” in each case. The binding result in assay [8], in [9] and in [10] was “binds” each time. Besides, in [2], the affinity, expressed as Kd, was 920 nM.

B3: HA-tagged full-length Tiam1 with a double mutation (R622A and R645A) (natural protein, UniProt Q60610 1-1591, looked up)
chain: MGNAESQNVDHEFYGEKHASLGRKHTSRSLRLSHKTRRTRHASSGKAIHRNSEVSTRSSSTPSIPQSLAENGLEPFSQEGALDDFGDPIWVDRVDMGLRPVSYTDSSVTPSVDGSIVLTAASVQSMPDSEESRLYGDDATYLAEGGRRQCPYTSNGPTFMETASFKKKRSKSADIWREDSLEFSLSDLSQEHLTSNEEILGSAEEKDCEEARGMETEASPRQLSTCQRANSLGDLYAQKNSGVKANGGPRNRFSSYCRNLVSDIPDLAKHKMPPAAAEETPPYSNYNTLPCRKSHCLSEGATNPQISLSKSMQGRRAKTTQDVNTGEGSEFADSGIEGATTDTDLLSRRSNATNSSYSPPTGRAFVGSDSGSSSTGDRARQGVYENFRRELEMSTTNSESLEEAGSAHSDEQSSGTLSSPGQSDILLTAAQGTVRKAGALAVKNFLVHKKNKKVESATRRKWKHYWVSLKGCTLFFYETDGRSGIDHNSVPKHAVWVENSIVQAVPEHPKKDFVFCLSNSLGDAFLFQTTSQTELENWITAIHSACAAAVARHHHKEDTLRLLKSEIKKLEQKIDMDEKMKKMGEMQLSSVTDSKKKKTILDQIFVWEQNLEQFQMDLFRFACYLASLQGGELPNPKRLLAFASAPTKVAMGRLGIFSVSSFHALVAARTGEIGVRRRTQAMSRSASKRRSRFSSLWGLDTTSKKKQGRPTINQVFGEGTDAVKRSLEGIFDDTVPDGKREKEVVLPSVHQHNPDCDIWVHEYFTPSWFCLPNNQPALTVVRPGDTARDTLELICKTHQLDHSAHYLRLKFLMENRVQFYIPQPEEDIYELLYKEIEICPKVTQNIHIEKSDAAADNYGFLLSSVDEDGIRRLYVNSVKETGLASKKGLKAGDEILEINNRAAGTLNSSMLKDFLSQPSLGLLVRTYPEPEGGVELLENPPHRVDGPVDLGESPLAFLTSNPGHSLSSEQGSSAETAPEEGEGPDLESSDETDHSSKSTEQVAAFCRSLHEMSPSDSSPSPQDATSPQLATTRQLSDADKLRKVICELLETERTYVKDLNCLMERYLKPLQKETFLTQDELDVLFGNLTEMVEFQVEFLKTLEDGVRLVPDLEKLEKVDQFKKVLFSLGGSFLYYADRFKLYSAFCASHTKVPKVLVKAKTDTAFKAFLDAQNPRQQHSSTLESYLIKPIQRVLKYPLLLRELFALTDAESEEHYHLDVAIKTMNKVASHINEMQKIHEEFGAVFDQLIAEQTGEKKEVADLSMGDLLLHTSVIWLNPPASLGKWKKEPELAAFVFKTAVVLVYKDGSKQKKKLVGSHRLSIYEEWDPFRFRHMIPTEALQVRALPSADAEANAVCEIVHVKSESEGRPERVFHLCCSSPESRKDFLKSVHSILRDKHRRQLLKTESLPSAQQYVPFGGKRLCALKGARPAMSRAVSAPSKSLGRRRRRLARNRFTIDSDAISASSPEKEPQQPAGGGDTDRWVEEQFDLAQYEEQDDIKETDILSDDDEFCESLKGASVDRDLQEQLQAASISQRARGRRTLDSHASRMTQLKKQAALSGINGGLESASEEVIWVRREDFAPSRKLNTEI
Take B3: the “Par3 binding relative to wild-type Tiam1” value in [11] is ~65%.

B4: Par3 acidic cluster peptide (mouse residues 931-960) (peptide, UniProt Q99NH2 931-960, looked up)
peptide: KPMVDDDDEGMETLEEDTEESSRSGRESVS
modifications: biotin on the N-terminus
Molecule B4 registered a Kd in assay [2] of 380 nM.
